Data from US20230040568A1.

Biological target: KIR3DL3 protein (antigen of the affinity determination of Table 3) (human) (UniProt Q8N743)
Test: method and antigen format not stated

KIR3DL3 protein (antigen of the affinity determination of Table 3) (human), sequence (Q8N743 other isoform, or with tags, fused parts or gaps limits assumed): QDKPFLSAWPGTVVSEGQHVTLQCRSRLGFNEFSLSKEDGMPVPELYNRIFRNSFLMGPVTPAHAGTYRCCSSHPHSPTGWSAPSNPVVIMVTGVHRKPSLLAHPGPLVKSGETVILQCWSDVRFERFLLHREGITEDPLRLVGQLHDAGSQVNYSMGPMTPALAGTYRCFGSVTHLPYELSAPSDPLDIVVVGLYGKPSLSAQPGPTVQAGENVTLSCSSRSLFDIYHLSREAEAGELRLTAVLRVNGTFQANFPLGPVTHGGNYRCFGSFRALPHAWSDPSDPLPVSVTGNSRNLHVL

Kd: 0.26 nM
B1: monoclonal 26E2 (antibody, part only; not given: VH framework 1 and CDR1, V domains shown, part only)
VH, part: RWVKQTPGQGLEWIGYIYPGDGGTNCNQKFQGKATLTADTSSSTAYMQISSLTSEDSAVYFCARSGNYGNYEGFAFWGQGTLVTVSA
VL: DIKMTQSPSSMYASLGERVTITCKASQDTNSYLSWFQQKPGKSPKTLIYRANRLVDGVPSRFSGSGSGQDYSLTISRLEYEDMGIYYCLQYNEFPYTFGGGTKLEIKRADA
